± gives the uncertainty stated by the source.
Test: protein stability index of a GFP-peptide fusion (yeast GPS) (PSI 1-4); higher = more stable; sorted into four equal gates, so the index is relative within each strain
Procedure, shortened: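 Sequencing reads from sorted gates were used to score each peptide. The library consisted of tiled 17-residue yeast protein peptides fused downstream of GFP on a Cherry-expressing plasmid, pooled and carried in yeast. Mid-log cultures in leucine-free medium were split into four equal gates by GFP/Cherry ratio, and each gate's plasmids were PCR-amplified and Illumina-sequenced. The protein stability index adds up, over all gates, the read frequency multiplied by the gate number.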

Sequence	protein stability index (doa10∆)	protein stability index (pdr5∆)	protein stability index (san1∆)	protein stability index (ubr1∆)
DLKLPPMDAYLKLNHII [SNU114]	3.09 ± 0.28	2.94 ± 0.18	2.52 ± 0.099	2.68 ± 0.12
LAGKVGSIRVHKSGKLS [RPC53]	1.45 ± 0.058	1.59 ± 0.072		1.28 ± 0.06
NMNNGGKELDSLDLNNL [PGD1]	3.06 ± 0.11	3.24 ± 0.11	3.06 ± 0.079	3.26 ± 0.065
EHGLQITHTENYNDLIV [BRN1]	3.5 ± 0.27	2.81 ± 0.18		2.77 ± 0.089
LNKFKKAIFQFVCRGMA [ECM29]	2.06 ± 0.1	2.08 ± 0.071	2.6 ± 0.11	1.92 ± 0.052
GNGNVSESDIINNLPPE [YCG1]	2.85 ± 0.24	2.85 ± 0.13	2.95 ± 0.27	2.78 ± 0.15
LALQRGATVFVNHLLLF [DPB4]	1.42 ± 0.046	1.26 ± 0.036	1.25 ± 0.083	1.34 ± 0.039
RMRFPPFDDDEPPLSYE [PRP8]	2.63 ± 0.047	3.06 ± 0.051	2.95 ± 0.035	2.61 ± 0.034
ELKINLPLTEHKSPNLS [SRB4]	2.93 ± 0.077	3.17 ± 0.051	2.87 ± 0.041	2.98 ± 0.058
VKLQMIKFGGLIIQKIP [ECM29]	2.48 ± 0.059	1.89 ± 0.065	1.48 ± 0.07	2.37 ± 0.049
QYILQIVSFIVNCFHED [YJL039C/NUP192]	1.42 ± 0.061	1.91 ± 0.062	2.18 ± 0.077	2.3 ± 0.057
SSSMDMQANTNALRRNL [SSN3]	2.63 ± 0.055	2.33 ± 0.05	3.13 ± 0.046	2.28 ± 0.043
IPYSRNAPAWFKLSSES [RPS13]	1.93 ± 0.058	1.92 ± 0.045	2.12 ± 0.074	2.44 ± 0.052
SKTWETYEMRIHKRYID [RPS20]	2.45 ± 0.13	3 ± 0.091	1.84 ± 0.18	3.21 ± 0.072
GDRGALARASGNYVIII [RPL2A]	2.82 ± 0.11	2.81 ± 0.11	2.84 ± 0.11	2.75 ± 0.14
IMAKRPFDKKSNSALFR [FAS1]	2.84 ± 0.059	2.9 ± 0.062	2.87 ± 0.046	2.89 ± 0.05
ASLVPEGNQGSLQEDVS [MED8]	3.19 ± 0.096	3.24 ± 0.087	2.9 ± 0.048	2.41 ± 0.097
HYDNTTRNSLGNVIQFI [RPO21]	2.45 ± 0.04	2.62 ± 0.043	2.87 ± 0.034	2.86 ± 0.03
HKHNIMKNENANPKKLA [CDC53]	2.14 ± 0.042	2.31 ± 0.049	2 ± 0.064	2.35 ± 0.057
KFMELERKTLERQQENL [SWI3]	2.76 ± 0.17	3.23 ± 0.1	3.06 ± 0.09	3.12 ± 0.071
LRNWEELNIIPRDLLRV [PRP28]	1.09 ± 0.068	1.35 ± 0.061	1.39 ± 0.21	1.07 ± 0.048
LNKSDLLDKYGKTGLSN [YML103C/NUP188]	3.38 ± 0.12	3.17 ± 0.13	3.44 ± 0.058	3.38 ± 0.075
DFIDTATRHVLMRQGVL [RPS3]	3.24 ± 0.055	3.06 ± 0.059	3.38 ± 0.054	2.98 ± 0.04
HGGKMKPEIDENGTLLV [RPR2]	3.16 ± 0.078	3.14 ± 0.11	3.05 ± 0.075	2.97 ± 0.047
WLKEYEDETLRRIKEAE [YIL149C/MLP2]	2.83 ± 0.11	3.19 ± 0.12	3.17 ± 0.069	3.44 ± 0.11
AAMVIMHLMALHIHGSS [COB]	1.9 ± 0.051	1.48 ± 0.059	1.35 ± 0.093	1.35 ± 0.044
